Measured values published in patent publication US10947270B2, “Targeted prodrug cytosine deaminase fusion carrier and application thereof” (National Yang-Ming University, priority 2015, dated 2021).
Values joined by “and” are separate entries in the source; they are usually repeats but may differ in a detail not shown here. Equal entries are not always repeated.

Key:
[1] = tested on: HUVEC, U87MG and MCF-7 cells; assay: MTT cytotoxicity assay of yCD series, statements for all three cells; type: cell-based, human; conditions: 5-FC alone
Procedure: The cell viability was determined by MTT assay. The seeded HUVEC cells shown in FIG. 7A, the seeded U87MG cells shown in FIG. 7B and the 96 wells of seeded MCF-7 cells shown in FIG. 7C are respectively added with 500 nM RGD4C-yCD, yCD, RGD4C-yCD/UPRT and yCD/UPRT recombinant protein, after removing the recombinant protein not bound with the cells and washing the cells, add 5-FC with different concentrations and observe the cell killing effect. Cells of the control groups were only incubated with different concentrations of 5-FU or 5-FC without protein treatment.
In this experiment, the MTT assay is applied to measure cytotoxicity induced by RGD4C-yCD/5-FC and RGD4C-yCD/UPRT/5-FC of the targeted prodrug enzyme fusion protein. In 96-well plate of seeded cells is respectively added with recombinant proteins such as 500 nM RGD4C-yCD, yCD, RGD4C-yCD/UPRT and yCD/UPRT, and co-cultured at 37° C. for 2 hours. The recombinant proteins not bound with cells are discarded. The cells were washed, and then were treated with different concentrations of 5-FC for observing the effect of cytotoxicity. On the other hand, the cells only treated with different concentrations of 5-FC and 5-FU separately as the control group.

[2] = tested on: U87MG, HUVEC and MCF-7 cells; assay: MTT cytotoxic test of EcCD series, statements for several cells; type: cell-based, human; conditions: 5-FC alone
Procedure: Relative cell viability was measured by MTT assay. The 50 nM EcCD series fusion protein is applied to U87MG, HUVEC and MCF-7 cells at 37° C. for 2 hours, after washing the unbound protein with PBS.

[3] = Enzyme kinetic analysis of EcCD series fusion proteins, substrate 5-FC; type: biochemical
Excerpt: FIGS. 11A-11D show the activity and kinetics analysis of EcCD series fusion protein enzymes, and the EcCD series proteins are combined with 5-FC at different concentrations for reaction. Respectively calculate the 5-FU formation reaction rate shown in FIG. 11A, 5-FC consumption reaction rate shown in FIG. 10B, uracil formation reaction rate shown in FIG. 10C and cytosine consumption reaction rate shown in FIG. 10D, substitute Michaelis-Menten formula, and calculate the base mass (Kcat) and Km value catalyzed by each mol enzyme in unit time.

[4] = Enzyme kinetic analysis of EcCD series fusion proteins, substrate cytosine; type: biochemical
Excerpt: FIGS. 11A-11D show the activity and kinetics analysis of EcCD series fusion protein enzymes, and the EcCD series proteins are combined with 5-FC at different concentrations for reaction. Respectively calculate the 5-FU formation reaction rate shown in FIG. 11A, 5-FC consumption reaction rate shown in FIG. 10B, uracil formation reaction rate shown in FIG. 10C and cytosine consumption reaction rate shown in FIG. 10D, substitute Michaelis-Menten formula, and calculate the base mass (Kcat) and Km value catalyzed by each mol enzyme in unit time. […]

[5] = Relative substrate selectivity of cytosine deaminase enzyme for 5-FC and cytosine (formula 1); type: biochemical; conditions: for [Kcat/Km(5-FC)]/{[Kcat/Km(cytosine)] + [Kcat/Km(5-FC)]}: relative substrate selectivity to 5-FC
Excerpt: Evaluation of the relative substrate selectivity of cytosine deaminase enzyme for 5-FC and Cytosine can be expressed by the following formula 1,
The higher the value, the higher the selectivity of the enzyme to the 5-FC substrate.

αvβ3 integrin = αvβ3 integrin (Homo sapiens, UniProt P05106+P06756); assay: ELISA binding of EcCD series fusion protein and αvβ3 integrin
Excerpt: FIGS. 13A-13B show the binding activity and specificity test of EcCD fusion protein and αvβ3 integrin receptor. […] (***compared with untreated RGDfv group, P value<0.001, indicating a statistically significant difference)
To confirm the binding ability of RGD4C peptide and αvβ3 integrin, the affinity of the protein and αvβ3 integrin is confirmed by ELISA method. […] This experiment confirms that RGD4C-EcCD_WT and RGD4C-EcCD_D314A have the binding activity of αvβ3 integrin, and this binding has the specificity of RGD4C peptide αvβ3 integrin.

U87MG, HUVEC cells = assay: RGDfv peptide competition of EcCD fusion protein binding to cells; type: cell-based, human; conditions: RGDfv peptide at 10-fold relative concentration
Procedure: FIGS. 14A-14E show the binding activity and specificity test of EcCD fusion protein and U87MG, HUVEC and MCF-7 cell strain. […] (***compared to the untreated RGDfv group, P value<0.001, indicating a statistically significant difference)
It is confirmed from the above experimental results that the EcCD series protein fused to the RGD4C peptide has the binding activity with the expressing αvβ3 integrin cell strain, and the binding has the specificity of the RGD4C peptide and αvβ3 integrin of the cell expression, and also confirmed that the D314A mutation will not affect the binding activity of the RGD4C peptide and αvβ3 integrin.

[6] = tested on: U87MG, HUVEC and MCF-7 cells; assay: Immunofluorescence of binding and distribution of EcCD fusion proteins in cells; type: cell-based, human; conditions: 37° C., 2 hours
Procedure: FIGS. 15A-15C show the binding and distribution of EcCD fusion proteins in U87MG, HUVEC and MCF-7 cell strain. The immunofluorescence staining is used to observe and experiment the EcCD fusion protein, which are respectively acted with U87MG cells in FIG. 15A, HUVEC cells in FIG. 15B and MCF-7 cells in FIG. 15C for 2 hours at 37° C., then fixed with 2% para-formadehyde, the fixed cells are first permeabilized with 0.1% Triton X-100 for 10 minutes, after that, cultured with 1% BSA blocking (dissolved in PBS containing Ca^2+, Mg^2+) for 1 hour at room temperature, then add a 1st antibody (Rabbit anti-His^6tag, Mouse anti-human CD51/61αvβ3 integrin), and then add a 2nd antibody (Anti-rabbit IgG-CF640R, Anti-mouse IgG-Alexa488), the protein distribution is observed by conjugated fluorescence microscope. (Green signal: αvβ3 integrin; red signal: anti-His^6tag; blue signal: Hoechst 33342 cell nucleus stain) (Scale bars: 20 μm)
Immunofluorescence is used to observe the distribution of the protein bound with cell in the cell. U87MG, HUVEC and MCF-7 cells act with culture medium containing EcCD_WT, RGD4C-EcCD_WT, EcCD_D314A and RGD4C-EcCD_D314A proteins at 37° C. for 2 hours, stain the cell, and observe protein distribution by the conjugated fluorescence microscopy.

[7] = type: physicochemical
Procedure: The radiochemical purity of ^111In-DTPA-yCD and ^111In-DTPA-RGD4C-yCD are greater than 95% after marking and purification. Both are stored in HEPES buffer liquid (4° C.) for 48 hours, and the radiochemical purity is still higher than 85% (see FIG. 26). Both are placed in fetal bovine serum (37° C.) to simulate their stability in vivo. After 48 hours, the radiochemical purity of both is about 80%. It is shown that radioactive metal indium-111 is stably chelated on DTPA.

HUVEC cells = assay: Competitive cell uptake with cRGDfk; type: cell-based, human; conditions: cRGDfk 1000-fold molar excess, 4 hours
Procedure: (§1) The uptake of ^111In-DTPA-yCD is low in the all three cell lines. […] The uptake amount of ^111In-DTPA-RGD4C-yCD by each cell strain is used as a control group, and analyzed by two sample t-test statistical methods, *P-value<0.05, **P-value<0.01, ***P-value<0.001, ****P-value<0.0001.
(§2) ^111In-DTPA-yCD and ^111In-DTPA-RGD4C-yCD (20 μCi/50 pmol/mL) are separately added to the 24-well plate of the seeded cells (2.5×10^5 cells/well) and cultured for 4 hours, and then the radioactivity of the cells and culture medium are separately measured, calculate the uptake amount of the drug by the cells (shown as % AD/10^6 cells).

MCF-7 cells = assay: Competitive cell uptake with cRGDfk; type: cell-based, human; conditions: cRGDfk 1000-fold molar excess, 4 hours
Procedure: as §1, §2

U87MG cells = assay: Competitive cell uptake with cRGDfk; type: cell-based, human; conditions: cRGDfk 1000-fold molar excess, 4 hours
Procedure: as §1, §2

ES-2-luc cells = assay: Competitive cell uptake with cRGDfk; type: cell-based; conditions: cRGDfk 1000-fold molar excess, 4 hours
[8] = parameters: species or system nude mice; conditions: mouse, in vivo
Procedure: The arrow is marked as a tumor.
In in-vitro cell experiment, the binding ability of ^111In-DTPA-RGD4C-yCD and the integrin αvβ3 receptor on the cell membrane has been verified. In order to know whether the drug can show its target effect in vivo, integrin αvβ3 is seeded subcutaneously in the right side of nude mice. After the high-expression U87MG tumor cells are grown to 100 mm^3, 60-70 μCi (3-3.5 μg) of ^111In-DTPA-yCD and ^111In-DTPA-RGD4C-yCD are injected directly into the tumor, the images are collected by microSPECT/CT after 1, 4, 24, 48 hours. It can be seen from the image (see FIG. 31) that the drug retention in the ^111In-DTPA-RGD4C-yCD group (orange arrow) is better than that in the ^111In-DTPA-yCD, and the target ligand RGD4C is missing. ^111In-DTPA-yCD enters the systemic blood circulation system within 1 hour and is metabolized by normal organs. From FIG. 31, it can be seen that the kidney is the main metabolic organ of these two drugs. […] After 24-48 hours, the amount of accumulation in the tumor is running out. On the contrary, ^111In-DTPA-RGD4C-yCD is bound with integrin αvβ3 on tumor cells, then the ratio of drug entering the systemic blood circulation is reduced, and the metabolic rate is slow.

[9] = parameters: species or system nude mice; conditions: mouse, in vivo; remark: listed apart in the source
Procedure: ES-2-luc tumor nude mice is intraperitoneally injected with 50 μCi (2.5 μg) ^111In-DTPA-yCD and ^111In-DTPA-RGD4C-yCD for 1, 4 and 24 hours, then organs are collected and their radioactivity is measured to obtain biodistribution, as shown in Table 19 and Table 20. […] In addition to the part accumulated in the tumor, another part of the drug is absorbed back into the blood circulation system by the peritoneal blood vessels. […] The pancreatic radioactivity of the two drugs is observed after 1 hour of injection. The pancreatic radioactivity of ^111In-DTPA-RGD4C-yCD (8.06±0.88% ID/g) is higher than that of ^111In-DTPA-yCD (3.91±0.36% ID/g), it is suspected that tumor cells invade the pancreas.

Sequence of αvβ3 integrin (P06756 31-889 limits assumed): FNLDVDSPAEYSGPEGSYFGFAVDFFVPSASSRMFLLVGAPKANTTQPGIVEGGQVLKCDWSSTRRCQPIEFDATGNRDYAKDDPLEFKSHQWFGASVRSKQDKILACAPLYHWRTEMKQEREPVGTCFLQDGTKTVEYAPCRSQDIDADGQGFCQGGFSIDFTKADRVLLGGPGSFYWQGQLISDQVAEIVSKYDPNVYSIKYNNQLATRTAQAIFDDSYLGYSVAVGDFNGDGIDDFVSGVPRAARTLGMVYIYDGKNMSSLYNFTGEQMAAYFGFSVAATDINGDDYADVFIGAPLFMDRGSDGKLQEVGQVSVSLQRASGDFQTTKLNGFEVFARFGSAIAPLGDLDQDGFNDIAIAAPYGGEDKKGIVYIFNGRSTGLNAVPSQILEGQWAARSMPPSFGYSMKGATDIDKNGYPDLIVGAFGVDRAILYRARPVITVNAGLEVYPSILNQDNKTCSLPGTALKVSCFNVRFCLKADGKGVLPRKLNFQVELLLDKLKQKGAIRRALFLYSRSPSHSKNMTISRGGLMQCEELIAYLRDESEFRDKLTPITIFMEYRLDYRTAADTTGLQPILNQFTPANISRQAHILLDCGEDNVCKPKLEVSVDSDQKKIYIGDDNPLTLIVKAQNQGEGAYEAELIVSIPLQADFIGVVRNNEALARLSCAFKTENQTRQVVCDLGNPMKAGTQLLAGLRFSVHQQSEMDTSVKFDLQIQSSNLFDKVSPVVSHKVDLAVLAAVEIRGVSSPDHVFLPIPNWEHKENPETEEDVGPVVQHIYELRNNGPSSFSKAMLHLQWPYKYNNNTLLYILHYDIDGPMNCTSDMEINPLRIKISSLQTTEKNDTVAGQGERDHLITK
Sequence of αvβ3 integrin (P06756 891-1048 partner limits assumed): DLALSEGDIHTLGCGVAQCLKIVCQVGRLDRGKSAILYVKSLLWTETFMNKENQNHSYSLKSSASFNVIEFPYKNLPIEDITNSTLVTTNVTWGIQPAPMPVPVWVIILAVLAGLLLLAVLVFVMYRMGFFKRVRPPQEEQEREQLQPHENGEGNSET
Sequence of αvβ3 integrin (P05106 27-788): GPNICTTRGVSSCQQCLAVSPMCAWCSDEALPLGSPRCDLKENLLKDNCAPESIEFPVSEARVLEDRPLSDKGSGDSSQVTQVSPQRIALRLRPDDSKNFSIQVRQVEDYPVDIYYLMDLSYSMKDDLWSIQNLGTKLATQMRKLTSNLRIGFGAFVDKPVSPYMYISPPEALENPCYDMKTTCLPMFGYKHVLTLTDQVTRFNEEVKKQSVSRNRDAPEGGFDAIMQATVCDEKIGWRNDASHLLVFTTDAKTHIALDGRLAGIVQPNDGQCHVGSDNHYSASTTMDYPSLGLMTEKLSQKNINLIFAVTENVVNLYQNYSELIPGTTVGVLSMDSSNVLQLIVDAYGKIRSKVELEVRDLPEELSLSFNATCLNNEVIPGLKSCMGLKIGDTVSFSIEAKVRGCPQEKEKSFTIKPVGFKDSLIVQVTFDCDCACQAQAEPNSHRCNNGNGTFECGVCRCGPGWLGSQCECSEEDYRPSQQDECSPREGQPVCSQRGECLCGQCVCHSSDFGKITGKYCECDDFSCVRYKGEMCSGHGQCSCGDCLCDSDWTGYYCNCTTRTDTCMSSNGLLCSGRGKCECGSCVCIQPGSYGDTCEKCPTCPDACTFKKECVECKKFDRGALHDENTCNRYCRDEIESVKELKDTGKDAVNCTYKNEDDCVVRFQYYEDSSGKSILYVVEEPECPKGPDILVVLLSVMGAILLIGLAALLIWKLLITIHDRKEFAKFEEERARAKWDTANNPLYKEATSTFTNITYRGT

## Nc1nc(=O)[nH]cc1F [5-FC, 5-fluorocytosine]
[1]
  cytotoxic ability: not significant cytotoxic ability
[2]
  survival rate: ~100%

B1: RGD4C-EcCD_D314A: targeted prodrug enzyme fusion protein (SEQ ID NO: 20) (protein)
chain: MGCDCRGDCFCMSNNALQTIINARLPGEEGLWQIHLQDGKISAIDAQSGVMPITENSLDAEQGLVIPPFVEPHIHLDTTQTAGQPNWNQSGTLFEGIERWAERKALLTHDDVKQRAWQTLKWQIANGIQHVRTHVDVSDATLTALKAMLEVKQEVAPWIDLQIVAFPQEGILSYPNGEALLEEALRLRADVVGAIPHFEFTREYGVESLHKTFALAQKYDRLIDVHCDEIDDEQSRFVETVAALAHHEGMGARVTASHTTAMHSYNGAYTSRLFRLLKMSGINFVANPLVNIHLQGRFDTYPKRRGITRVKEMLESGINVCFGHDAVFDPWYPLGTANMLQVLHMGLHVCQLMGYGQINDGLNLITHHSARTLNLQDYGIAAGNSANLIILPAENGFDALRRQVPVRYSVRGGKVIASTQPAQTTVYLEQPEAIDYKRLEHHHHHH
modifications: RGD4C_EcCD_D314A
[3]; 5-FC consumption (Table 5)
  Kcat: 38.6 ± 1.0 s⁻¹ and 39.1 ± 1.0 s⁻¹
  Km: 3.5 ± 0.2 mM
[3]; 5-FU generation
  Kcat: 39.4 ± 1.1 s⁻¹ and 38.4 ± 0.8 s⁻¹
  Km: 3.5 mM and 3.4 mM
[3]; substrate 5-FC
  Kcat/Km higher than that of the corresponding WT protein: about 2.4 times
[4]; cytosine consumption
  Kcat: 17.7 ± 1.3 s⁻¹
  Km: 3 mM and 2.9 mM
[4]; substrate cytosine
  Kcat/Km lower than that of the corresponding WT protein: about 15.5 times
[4]; uracil generation
  Kcat: 21.7 ± 4.8 s⁻¹
  Km: 3.8 ± 1.7 mM
[5]
  relative substrate selectivity to 5-FC higher than the corresponding WT protein: about 13.8 times
  [Kcat/Km(5-FC)]/{[Kcat/Km(cytosine)] + [Kcat/Km(5-FC)]}: 0.648
[5]; listed as RGD4C- EcCD_D314A
  [Kcat/Km(5-FC)]/{[Kcat/Km(cytosine)] + [Kcat/Km(5-FC)]}: 0.664
αvβ3 integrin; RGDfv peptide at 10-fold concentration
  inhibition of binding capacity by RGDfv peptide: about 80%
αvβ3 integrin; RGDfv peptide at same concentration
  inhibition of binding capacity by RGDfv peptide: about 30%
U87MG, HUVEC cells
  inhibition of binding by RGDfv peptide competition: about 50%
[6]
  binding with cells: have the ability of binding with U87MG and HUVEC cells
  internalization: will enter the internalization

B2: ^111In-DTPA-RGD4C-yCD: indium-111 labeled DTPA-RGD4C-yCD protein (conjugate)
chain: MACDCRGDCFCVTGGMASKWDQKGMDIAYEEAALGYKEGGVPIGGCLINNKDGSVLGRGHNMRFQKGSATLHGEISTLENCGRLEGKVYKDTTLYTTLSPCDMCTGAIIMYGIPRCVVGENVNFKSKGEKYLQTRGHEVVVVDDERCKKIMKQFIDERPQDWFEDIGELEHHHHHH
[7]
  radiochemical purity after incubation: about 80%
HUVEC cells
  decrease of cell uptake by cRGDfk: about 65%
MCF-7 cells
  decrease of cell uptake by cRGDfk: ~45%
U87MG cells
  decrease of cell uptake by cRGDfk: ~55%
ES-2-luc cells
  decrease of cell uptake by cRGDfk: about 70%
[8]
  accumulation in the tumor: considerable drug accumulation in the tumor
[9]
  radioactivity in the peritoneal cavity reduced to (fraction of 1 hour value): ¼
  radioactivity in tumor higher than that of ^111In-DTPA-yCD: approximately 3 times
